Source: US20220289806A1 (CYTIMM THERAPEUTICS, published 2022)

How the values were obtained:
[1] = biological target: T1, IL-2Rα in human Fc fusion protein format (ACROBiosystems) (human, UniProt P01589 22-217, limits assumed); experiment: Octet QKe (biolayer interferometry): IL-2Rα-human Fc on AHC sensors, serial dilutions of the IL-2 variant [cont.]
T1 construct: Bought reagent, captured on anti-Human IgG Fc Capture (AHC) sensors; also called CD25; not shown: human Fc
T1 sequence (looked up): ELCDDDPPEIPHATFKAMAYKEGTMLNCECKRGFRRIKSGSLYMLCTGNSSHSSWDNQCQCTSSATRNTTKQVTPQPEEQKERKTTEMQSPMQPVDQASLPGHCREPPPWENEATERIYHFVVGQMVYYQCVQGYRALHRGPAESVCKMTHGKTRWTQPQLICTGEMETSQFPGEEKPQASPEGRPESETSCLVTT
Source text: IL-2Rα or IL-2Rβ in human Fc fusion protein format (ACROBiosystems) were captured on anti-Human IgG Fc Capture (AHC) sensors. […] Dissociation was detected following transfer of sensors into wells containing buffer alone. Data were collected and analyzed by Octet User Software. For analysis of the kinetics constants, 1:1 curve fitting model was used.

[2] = biological target: T2, IL-2Rβγ on human CD8+CD45RA+CD25low naïve T cells (human, UniProt P14784 27-551; P31785 23-369); experiment: cell-based or functional assay
T2 sequence (looked up) 1: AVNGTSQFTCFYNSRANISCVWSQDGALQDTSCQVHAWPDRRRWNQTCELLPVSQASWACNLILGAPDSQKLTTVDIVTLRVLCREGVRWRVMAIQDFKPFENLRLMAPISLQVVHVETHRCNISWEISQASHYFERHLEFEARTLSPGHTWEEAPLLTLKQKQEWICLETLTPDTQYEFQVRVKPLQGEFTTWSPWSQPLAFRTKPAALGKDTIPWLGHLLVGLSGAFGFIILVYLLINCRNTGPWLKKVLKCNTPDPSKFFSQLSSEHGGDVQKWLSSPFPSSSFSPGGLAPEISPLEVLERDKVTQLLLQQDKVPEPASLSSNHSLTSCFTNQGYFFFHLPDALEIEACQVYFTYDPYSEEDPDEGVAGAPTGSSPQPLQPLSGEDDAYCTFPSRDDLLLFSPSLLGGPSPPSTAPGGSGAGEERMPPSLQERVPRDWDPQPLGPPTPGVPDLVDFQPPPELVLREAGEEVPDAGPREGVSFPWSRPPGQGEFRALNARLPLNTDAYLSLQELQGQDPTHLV
T2 sequence (looked up) 2: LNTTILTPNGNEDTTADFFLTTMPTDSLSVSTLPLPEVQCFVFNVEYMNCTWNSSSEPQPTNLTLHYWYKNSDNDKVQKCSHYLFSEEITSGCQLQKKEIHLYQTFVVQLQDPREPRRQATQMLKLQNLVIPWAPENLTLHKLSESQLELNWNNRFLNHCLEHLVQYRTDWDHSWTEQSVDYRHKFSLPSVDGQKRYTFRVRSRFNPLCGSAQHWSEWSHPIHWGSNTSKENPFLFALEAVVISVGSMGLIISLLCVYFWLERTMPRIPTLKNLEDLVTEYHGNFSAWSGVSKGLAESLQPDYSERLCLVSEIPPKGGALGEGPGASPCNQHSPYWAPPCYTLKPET

[3] = biological target: T3, IL-2Rαβγ on human T cells (human, UniProt P01589 22-272; P14784 27-551; P31785 23-369); experiment: cell-based or functional assay
T3 sequence (looked up) 1: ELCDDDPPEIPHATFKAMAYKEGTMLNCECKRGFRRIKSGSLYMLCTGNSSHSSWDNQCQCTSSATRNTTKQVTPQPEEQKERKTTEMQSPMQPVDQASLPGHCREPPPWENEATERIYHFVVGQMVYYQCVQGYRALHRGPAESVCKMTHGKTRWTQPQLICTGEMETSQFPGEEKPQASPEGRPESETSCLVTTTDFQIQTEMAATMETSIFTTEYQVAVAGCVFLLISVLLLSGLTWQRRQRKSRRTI
T3 sequence (looked up) 2: T2 sequence (looked up) 1
T3 sequence (looked up) 3: T2 sequence (looked up) 2

binding result [1]: no binding (tested: not printed)
EC50 of STAT5 phosphorylation, CD25-CD8+ naïve T (IL-2Rβγ) [2]: 1.6 µg/mL
EC50 of STAT5 phosphorylation, CD25+CD4+ T (IL-2Rαβγ) [3]: 1.65 µg/mL
B1: Y31C-PEG20 + F42K (ligand)
chain: APTSSSTKKTQLQLEHLLLDLQMILNGINNCKNPKLTRMLTKKFYMPKKATELKHLQCLEEELKPLEEVLNLAQSKNFHLRPRDLISNINVIVLELKGSETTFMCEYADETATIVEFLNRWITFSQSIISTLT
modifications: maleimide-PEG 20K on Cys 31
notes: rhIL-2 (C125S) background with Y31C and F42K, PEGylated at Cys 31; not shown: His tag
